Results published in the supplement of paper PMC6757056.
± gives the standard deviation of the averaged measurements.

B1: library; a variant is named by its letters at N, in order (parent)
chain: GCUGUCACCGGUGUAUUACCCUAGUGGUCGACCGGUCUGAUGAGUCUNNNNNNAGACGAAACAGC

Experiments:
hypoxanthine [1] = variants of: B1; test: normalized RNA/DNA level with ligand (relative to sTRSVctl = 100) (log10 (% of sTRSVctl)); ligand: hypoxanthine (xanthine aptamer); higher = less ribozyme self-cleavage, higher mRNA level; conditions: ligand concentration (+) RNA-Seq: 5 mM, HEK293T, reporter: mCherry (pCS4076), ligand present: yes
How it was run: (§1)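 Total RNA, extracted with EDTA 72 h after HEK293T cells were transfected with 4 µg per 6-well well of reporter-linked ribozyme switch library plasmids, was reverse-transcribed, amplified, barcoded and sequenced. Ligand, if used, was added 1 h before transfection. RNA level was derived from RNA reads divided by DNA reads and normalized to a spiked-in non-cleaving sequence or to the top sequences. This was multiplied by 100 and log10-transformed, with the top set of 25 sequences and a ≥100 DNA read minimum.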

hypoxanthine [2] = variants of: B1; test: normalized RNA/DNA level without ligand (relative to sTRSVctl = 100) (log10 (% of sTRSVctl)); ligand: hypoxanthine (xanthine aptamer); higher = less ribozyme self-cleavage, higher mRNA level; conditions: HEK293T, reporter: mCherry (pCS4076), ligand present: no
How it was run: as §1

Row | Variant | normalized RNA/DNA level with ligand (log10) (hypoxanthine [1]) | normalized RNA/DNA level without ligand (log10) (hypoxanthine [2])
1 | UGGUGU | 1.95 ± 0.067 | 1.599 ± 0.0035
2 | UGGUGA | 1.88 ± 0.023 | 1.52 ± 0.088
3 | UGGUGG | 1.93 ± 0.038 | 1.596 ± 0.0083
4 | UGGUGC | 1.94 ± 0.011 | 1.855 ± 0.0028
5 | GGGUCA | 1.99 ± 0.068 | 1.91 ± 0.032
6 | GGGUCG | 1.99 ± 0.02 | 1.78 ± 0.051
7 | GGGUCU | 1.98 ± 0.054 | 1.93 ± 0.037
8 | CGUCAU | 1.931 ± 0.0026 | 1.92 ± 0.029
9 | CGUCAC | 1.96 ± 0.044 | 1.92 ± 0.024
10 | CGUGUC | 1.947 ± 0.015 | 1.94 ± 0.039
11 | CGUGUA | 1.93 ± 0.024 | 1.68 ± 0.042
12 | UGUGAU | 1.9 ± 0.026 | 1.77 ± 0.023
13 | UGUGAG | 1.894 ± 0.015 | 1.588 ± 0.011
14 | UGUGAA | 1.908 ± 0.012 | 1.76 ± 0.025
15 | UGGUUA | 1.94 ± 0.044 | 1.871 ± 0.0021
16 | UGGUUG | 1.962 ± 0.011 | 1.79 ± 0.03
17 | GGGUGU | 1.9307 ± 0.0015 | 1.81 ± 0.062
18 | GGUAUU | 1.973 ± 0.0023 | 1.88 ± 0.085
19 | GGUAUA | 1.92 ± 0.074 | 1.83 ± 0.024
20 | GGUAUC | 1.957 ± 0.017 | 1.82 ± 0.013
21 | CGGCUC | 2.04 ± 0.061 | 2.037 ± 0.017
22 | CGGCUG | 1.97 ± 0.037 | 1.889 ± 0.0029
23 | CGGCUU | 2.05 ± 0.038 | 1.93 ± 0.02

Row | Variant | normalized RNA/DNA level with ligand (log10) (hypoxanthine [1]) | normalized RNA/DNA level without ligand (log10) (hypoxanthine [2])
24 | CGGCUA | 1.935 ± 0.017 | 1.67 ± 0.031
25 | UGUGUC | 1.98 ± 0.041 | 1.958 ± 0.0027
26 | UGUGUA | 1.92 ± 0.032 | 1.79 ± 0.058
27 | GGUCAU | 1.94 ± 0.037 | 1.89 ± 0.041
28 | GGUCAA | 1.94 ± 0.036 | 1.83 ± 0.034
29 | GGUCAG | 1.94 ± 0.023 | 1.69 ± 0.012
30 | UGGGUG | 1.972 ± 0.0063 | 1.727 ± 0.016
31 | UGGGUU | 1.99 ± 0.023 | 1.9 ± 0.047
32 | UGGGUC | 1.98 ± 0.043 | 1.966 ± 0.0086
33 | UGGGAC | 1.897 ± 0.018 | 1.83 ± 0.044
34 | UGGGAG | 1.9 ± 0.054 | 1.55 ± 0.044
35 | UGGGAA | 1.86 ± 0.054 | 1.64 ± 0.036
36 | UGGGAU | 1.938 ± 0.014 | 1.71 ± 0.02
37 | AGUAGG | 1.78 ± 0.051 | 1.368 ± 0.013
38 | AGUAGC | 1.911 ± 0.012 | 1.64 ± 0.08
39 | AGUCGC | 1.945 ± 0.016 | 1.814 ± 0.016
40 | GGGUUC | 1.95 ± 0.053 | 1.91 ± 0.095
41 | GGGUUU | 1.951 ± 0.015 | 1.951 ± 0.0082
42 | CGGUUG | 1.97 ± 0.072 | 1.88 ± 0.062
43 | CGGUUU | 1.935 ± 0.017 | 1.791 ± 0.015
44 | CGGUUA | 1.89 ± 0.11 | 1.52 ± 0.045
45 | UGGCUA | 2.009 ± 0.006 | 1.942 ± 0.011
46 | UGGCUC | 2.02 ± 0.051 | 2 ± 0.021

Row | Variant | normalized RNA/DNA level with ligand (log10) (hypoxanthine [1]) | normalized RNA/DNA level without ligand (log10) (hypoxanthine [2])
47 | AGGUGG | 1.83 ± 0.021 | 1.391 ± 0.011
48 | AGGUGC | 1.93 ± 0.051 | 1.68 ± 0.04
49 | AGGUGU | 1.92 ± 0.028 | 1.49 ± 0.098
50 | CGGCCU | 2.03 ± 0.021 | 1.93 ± 0.027
51 | CGGCCA | 1.96 ± 0.056 | 1.95 ± 0.027
52 | CGGCCC | 1.979 ± 0.011 | 2.012 ± 0.0089
53 | CGUGGU | 1.95 ± 0.021 | 1.86 ± 0.026
54 | CGUGGC | 1.901 ± 0.0033 | 1.883 ± 0.013
55 | AGUAAG | 1.82 ± 0.032 | 1.39 ± 0.024
56 | AGUAAC | 1.92 ± 0.035 | 1.798 ± 0.0049
57 | AGGGAU | 1.89 ± 0.051 | 1.713 ± 0.0045
58 | GGGGGG | 1.94 ± 0.03 | 1.65 ± 0.049
59 | GGGGGA | 1.8897 ± 0.00058 | 1.77 ± 0.1
60 | AGGCUC | 2.02 ± 0.024 | 2.01 ± 0.055
61 | AGGCUU | 1.968 ± 0.014 | 1.89 ± 0.043
62 | UGUGCU | 1.92 ± 0.0065 | 1.93 ± 0.057
63 | UGUGCA | 1.92 ± 0.031 | 1.86 ± 0.022
64 | UGUGCC | 1.984 ± 0.0044 | 1.946 ± 0.019
65 | CGGUAC | 1.88 ± 0.03 | 1.54 ± 0.084
66 | UGUAAC | 1.914 ± 0.013 | 1.81 ± 0.024
67 | UGUAAU | 1.91 ± 0.055 | 1.816 ± 0.012
68 | UGUAAA | 1.9212 ± 0.0013 | 1.802 ± 0.015
69 | GGGGCG | 1.93 ± 0.057 | 1.748 ± 0.0076

Row | Variant | normalized RNA/DNA level with ligand (log10) (hypoxanthine [1]) | normalized RNA/DNA level without ligand (log10) (hypoxanthine [2])
70 | GGGGCA | 1.941 ± 0.011 | 1.911 ± 0.01
71 | UGGGCU | 2.05 ± 0.031 | 1.974 ± 0.019
72 | UGGGCC | 1.96 ± 0.04 | 2.019 ± 0.012
73 | UGGGCG | 1.96 ± 0.043 | 1.8 ± 0.042
74 | UGGGCA | 1.938 ± 0.014 | 1.84 ± 0.056
75 | GGUAGA | 1.894 ± 0.015 | 1.41 ± 0.058
76 | AGGCGC | 1.962 ± 0.0082 | 1.87 ± 0.031
77 | AGGCGA | 1.92 ± 0.066 | 1.557 ± 0.0027
78 | AGUGAA | 1.9 ± 0.025 | 1.66 ± 0.059
79 | AGUGAG | 1.79 ± 0.029 | 1.28 ± 0.096
80 | AGUGAC | 1.912 ± 0.019 | 1.814 ± 0.012
81 | GGUCUG | 1.87 ± 0.06 | 1.71 ± 0.029
82 | GGUCUC | 2.006 ± 0.016 | 1.96 ± 0.037
83 | GGUCUU | 1.933 ± 0.018 | 1.94 ± 0.025
84 | CGUCGA | 1.914 ± 0.011 | 1.85 ± 0.052
85 | CGUCGC | 1.9 ± 0.11 | 1.909 ± 0.01
86 | CGUCGU | 2.05 ± 0.051 | 1.98 ± 0.036
87 | CGUCGG | 1.9 ± 0.026 | 1.57 ± 0.035
88 | UGGCCG | 2.015 ± 0.00026 | 1.956 ± 0.006
89 | UGGCCC | 2.02 ± 0.022 | 1.99 ± 0.044
90 | UGGCCU | 1.98 ± 0.043 | 2.008 ± 0.0053
91 | UGGCCA | 1.97 ± 0.033 | 1.92 ± 0.046
92 | GGGCGA | 1.99 ± 0.057 | 1.88 ± 0.038

Row | Variant | normalized RNA/DNA level with ligand (log10) (hypoxanthine [1]) | normalized RNA/DNA level without ligand (log10) (hypoxanthine [2])
93 | GGGCGU | 2 ± 0.0057 | 1.96 ± 0.049
94 | GGGCGC | 1.929 ± 0.013 | 1.7 ± 0.032
95 | CGGUCC | 2 ± 0.059 | 1.88 ± 0.066
96 | CGGUCU | 1.95 ± 0.034 | 1.89 ± 0.048
97 | CGGUCA | 2.011 ± 0.012 | 1.8 ± 0.026
98 | CGGUCG | 1.9971 ± 7.8e-05 | 1.87 ± 0.023
99 | AGGCCC | 1.99 ± 0.038 | 1.95 ± 0.044
100 | AGGUUA | 1.93 ± 0.035 | 1.68 ± 0.031
101 | AGGUUC | 1.939 ± 0.0087 | 1.83 ± 0.026
102 | AGGUUU | 1.95 ± 0.073 | 1.87 ± 0.026
103 | CGUAGC | 1.9509 ± 0.00084 | 1.875 ± 0.0047
104 | CGUAGU | 1.99 ± 0.086 | 1.87 ± 0.037
105 | CGUAGA | 1.958 ± 0.0094 | 1.8 ± 0.021
106 | CGUAGG | 1.808 ± 0.0097 | 1.334 ± 0.0095
107 | AGGGCC | 1.98 ± 0.024 | 1.98 ± 0.04
108 | AGGGCU | 1.99 ± 0.027 | 1.874 ± 0.018
109 | AGGCAC | 1.94 ± 0.021 | 1.83 ± 0.042
110 | AGUACU | 1.897 ± 0.0094 | 1.89 ± 0.043
111 | AGUACC | 1.94 ± 0.069 | 1.87 ± 0.03
112 | AGUACA | 1.87 ± 0.071 | 1.76 ± 0.036
113 | AGUCUC | 1.94 ± 0.037 | 1.89 ± 0.026
114 | AGUCUA | 1.924 ± 0.0097 | 1.836 ± 0.0084
115 | AGUCUU | 1.96 ± 0.04 | 1.89 ± 0.036
